Test results reported in patent US20250262210A1 (TRUSTEES OF COLUMBIA UNIVERSITY IN THE CITY OF NEW YORK, published 2025).

Legend:
[1] = target: T1, ATAD2 (human, UniProt Q6PL18 1-1390, limits assumed); test: IP/MS, LZTR1 R810W-FLAG, U87
T1 sequence (looked up): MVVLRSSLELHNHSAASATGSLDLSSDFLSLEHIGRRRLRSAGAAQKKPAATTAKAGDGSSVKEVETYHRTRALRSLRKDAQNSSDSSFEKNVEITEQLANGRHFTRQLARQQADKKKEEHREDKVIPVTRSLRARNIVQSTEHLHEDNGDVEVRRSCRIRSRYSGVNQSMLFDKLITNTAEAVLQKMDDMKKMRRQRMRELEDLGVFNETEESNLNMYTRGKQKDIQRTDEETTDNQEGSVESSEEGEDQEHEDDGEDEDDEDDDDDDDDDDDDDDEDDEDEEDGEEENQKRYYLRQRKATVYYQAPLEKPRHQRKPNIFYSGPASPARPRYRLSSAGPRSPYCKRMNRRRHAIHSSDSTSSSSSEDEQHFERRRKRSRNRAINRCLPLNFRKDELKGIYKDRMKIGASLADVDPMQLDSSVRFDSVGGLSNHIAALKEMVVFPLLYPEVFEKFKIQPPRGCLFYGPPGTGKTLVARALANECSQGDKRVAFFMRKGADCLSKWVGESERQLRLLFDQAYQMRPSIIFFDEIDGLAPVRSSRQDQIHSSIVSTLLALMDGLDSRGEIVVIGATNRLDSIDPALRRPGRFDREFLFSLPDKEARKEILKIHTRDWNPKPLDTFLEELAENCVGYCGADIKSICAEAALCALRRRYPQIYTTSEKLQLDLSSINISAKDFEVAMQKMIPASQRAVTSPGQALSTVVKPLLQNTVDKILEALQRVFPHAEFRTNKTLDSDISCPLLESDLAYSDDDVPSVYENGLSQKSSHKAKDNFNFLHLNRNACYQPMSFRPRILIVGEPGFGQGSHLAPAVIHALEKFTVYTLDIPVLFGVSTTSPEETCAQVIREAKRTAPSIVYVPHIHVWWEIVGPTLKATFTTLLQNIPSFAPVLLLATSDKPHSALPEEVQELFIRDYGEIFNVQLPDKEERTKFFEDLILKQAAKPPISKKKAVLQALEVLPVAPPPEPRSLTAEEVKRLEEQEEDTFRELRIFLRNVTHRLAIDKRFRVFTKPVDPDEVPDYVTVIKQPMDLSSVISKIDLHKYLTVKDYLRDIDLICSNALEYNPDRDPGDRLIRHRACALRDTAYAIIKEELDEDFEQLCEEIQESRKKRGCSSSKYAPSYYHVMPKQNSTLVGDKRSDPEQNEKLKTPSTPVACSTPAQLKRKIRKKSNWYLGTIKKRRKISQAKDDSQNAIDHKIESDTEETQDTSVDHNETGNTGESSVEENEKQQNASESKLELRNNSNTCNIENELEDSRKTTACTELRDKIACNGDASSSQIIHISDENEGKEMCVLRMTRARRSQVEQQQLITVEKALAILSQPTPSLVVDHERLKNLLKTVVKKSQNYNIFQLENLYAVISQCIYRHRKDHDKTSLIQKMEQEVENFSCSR
Summary of the method: (§1)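 Gel slices were reduced with 5 mM DTT, alkylated with 11 mM IAA and digested overnight at 37° C. with trypsin. Peptides were analysed on an Orbitrap Fusion Tribrid by LC-MS/MS.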

[2] = target: T2, USP4 (human, UniProt Q13107 1-963, limits assumed); test: IP/MS, LZTR1 R810W-FLAG, U87
T2 sequence (looked up): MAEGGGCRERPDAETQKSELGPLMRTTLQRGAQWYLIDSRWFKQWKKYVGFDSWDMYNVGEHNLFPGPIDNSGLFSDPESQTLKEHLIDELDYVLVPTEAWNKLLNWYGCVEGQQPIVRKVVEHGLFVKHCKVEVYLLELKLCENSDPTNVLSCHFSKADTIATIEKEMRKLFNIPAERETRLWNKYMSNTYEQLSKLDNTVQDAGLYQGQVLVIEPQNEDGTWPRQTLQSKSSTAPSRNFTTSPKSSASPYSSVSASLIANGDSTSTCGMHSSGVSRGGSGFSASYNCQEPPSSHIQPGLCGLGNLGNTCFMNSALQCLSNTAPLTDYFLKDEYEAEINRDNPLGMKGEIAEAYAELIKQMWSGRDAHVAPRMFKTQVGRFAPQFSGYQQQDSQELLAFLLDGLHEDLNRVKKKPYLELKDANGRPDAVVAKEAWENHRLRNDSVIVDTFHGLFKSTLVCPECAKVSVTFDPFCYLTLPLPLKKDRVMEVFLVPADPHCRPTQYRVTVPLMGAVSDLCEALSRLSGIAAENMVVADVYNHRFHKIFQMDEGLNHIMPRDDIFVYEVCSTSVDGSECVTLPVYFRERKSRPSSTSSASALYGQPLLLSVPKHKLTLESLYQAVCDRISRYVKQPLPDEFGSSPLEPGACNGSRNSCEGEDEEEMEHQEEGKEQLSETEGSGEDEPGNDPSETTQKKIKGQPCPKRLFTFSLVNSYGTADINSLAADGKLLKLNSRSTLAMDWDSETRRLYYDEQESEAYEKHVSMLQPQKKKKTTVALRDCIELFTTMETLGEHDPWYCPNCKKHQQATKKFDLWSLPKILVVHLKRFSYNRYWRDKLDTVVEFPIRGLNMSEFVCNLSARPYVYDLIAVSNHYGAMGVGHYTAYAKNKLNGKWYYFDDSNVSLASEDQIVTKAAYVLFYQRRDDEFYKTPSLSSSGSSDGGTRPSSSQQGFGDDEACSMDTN
Summary of the method: as §1

B1: LZTR1 R810W-FLAG (other, human, UniProt Q8N653 1-840, looked up)
chain: MAGPGSTGGQIGAAALAGGARSKVAPSVDFDHSCSDSVEYLTLNFGPFETVHRWRRLPPCDEFVGARRSKHTVVAYKDAIYVFGGDNGKTMLNDLLRFDVKDCSWCRAFTTGTPPAPRYHHSAVVYGSSMFVFGGYTGDIYSNSNLKNKNDLFEYKFATGQWTEWKIEGRLPVARSAHGATVYSDKLWIFAGYDGNARLNDMWTIGLQDRELTCWEEVAQSGEIPPSCCNFPVAVCRDKMFVFSGQSGAKITNNLFQFEFKDKTWTRIPTEHLLRGSPPPPQRRYGHTMVAFDRHLYVFGGAADNTLPNELHCYDVDFQTWEVVQPSSDSEVGGAEVPERACASEEVPTLTYEERVGFKKSRDVFGLDFGTTSAKQPTQPASELPSGRLFHAAAVISDAMYIFGGTVDNNIRSGEMYRFQFSCYPKCTLHEDYGRLWESRQFCDVEFVLGEKEECVQGHVAIVTARSRWLRRKITQARERLAQKLEQEAAPVPREAPGVAAGGARPPLLHVAIREAEARPFEVLMQFLYTDKIKYPRKGHVEDVLLIMDVYKLALSFQLCRLEQLCRQYIEASVDLQNVLVVCESAARLQLSQLKEHCLNFVVKESHFNQVIMMKEFERLSSPLIVEIVRRKQQPPPRTPLDQPVDIGTSLIQDMKAYLEGAGAEFCDITLLLDGHPRPAHKAILAARSSYFEAMFRSFMPEDGQVNISIGEMVPSRQAFESMLRYIYYGEVNMPPEDSLYLFAAPYYYGFYNNRLQAYCKQNLEMNVTVQNVLQILEAADKTQALDMKRHCLHIIVHQFTKVSKLPTLWSLSQQLLLDIIDSLASHISDKQCAELGADI
notes: Stably expressed in U87 cells by lentivirus; also called LZTR1-FLAG-R810W; LZTR1 RW; not shown: FLAG tag
binding result [1]: binds | binding result [2]: binds
